Paper PMC10167327 (2023)
Values belong to the binder of their own block, whether it stands above or below them.

B3: Vtc4* (Vtc4(1–487), SPX and TTM domains of Vtc4 without the transmembrane domain) (domain or fragment)
chain: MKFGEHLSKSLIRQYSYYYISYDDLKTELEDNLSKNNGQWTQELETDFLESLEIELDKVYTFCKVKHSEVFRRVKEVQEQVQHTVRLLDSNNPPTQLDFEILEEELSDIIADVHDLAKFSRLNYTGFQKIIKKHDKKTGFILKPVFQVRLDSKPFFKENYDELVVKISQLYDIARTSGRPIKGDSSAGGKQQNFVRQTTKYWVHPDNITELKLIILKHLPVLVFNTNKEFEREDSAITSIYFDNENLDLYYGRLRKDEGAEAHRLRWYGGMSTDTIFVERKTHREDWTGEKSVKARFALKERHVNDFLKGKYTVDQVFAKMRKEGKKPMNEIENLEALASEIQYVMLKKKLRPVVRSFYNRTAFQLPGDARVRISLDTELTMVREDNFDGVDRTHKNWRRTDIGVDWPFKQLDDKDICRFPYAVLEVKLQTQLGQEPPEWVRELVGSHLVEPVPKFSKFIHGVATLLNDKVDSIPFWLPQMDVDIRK
modifications: RED-tris-NTA 2nd generation dye on the His tag (MST); RED-NHS 2nd generation dye (MST with TTM2)

Legend:
[1] = target: B3; assay: MST; 2.5 mM 5-IP7
[2] = target: B3; assay: MST; +100 mM NaCl
[3] = target: B3; assay: MST; 2.5 mM IP6
[4] = target: B3; assay: MST
[5] = target: TTM4 (TTM domain of Vtc4, Vtc4(192–487)) (S. cerevisiae, UniProt P47075 192-487, RED-tris-NTA 2nd generation dye on the His tag); assay: MST
[6] = target: B3; assay: MST; remark: listed apart in the source
SPX2 Y19F = SPX2 Y19F (S. cerevisiae, UniProt P43585 1-201, Y19F); assay: MST
SPX2 N121A = SPX2 N121A (S. cerevisiae, UniProt P43585 1-201, N121A); assay: MST
SPX2 K127A = SPX2 K127A (S. cerevisiae, UniProt P43585 1-201, K127A); assay: MST
SPX2 S187A = SPX2 S187A (S. cerevisiae, UniProt P43585 1-201, serine 187 to alanine); assay: MST
SPX2 S189A = SPX2 S189A (S. cerevisiae, UniProt P43585 1-201, serine 189 to alanine); assay: MST

Sequence of TTM4 (TTM domain of Vtc4, Vtc4(192–487)) (P47075 192-487): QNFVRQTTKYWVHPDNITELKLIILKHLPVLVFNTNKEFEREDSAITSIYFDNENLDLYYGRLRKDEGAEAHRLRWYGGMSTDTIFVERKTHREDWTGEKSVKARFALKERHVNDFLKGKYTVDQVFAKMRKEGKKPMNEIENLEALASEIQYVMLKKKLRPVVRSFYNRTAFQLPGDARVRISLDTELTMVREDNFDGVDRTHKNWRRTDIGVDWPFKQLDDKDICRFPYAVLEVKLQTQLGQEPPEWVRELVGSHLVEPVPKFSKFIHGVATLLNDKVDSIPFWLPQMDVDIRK

Kd [1]: > 1200 µM | Kd [2]: 91 µM | Kd [3]: > 300 µM | Kd [4]: 18.8 µM | Kd [5]: 264 µM
B1: SPX2 (SPX domain of Vtc2, Vtc2(1–201)) (domain or fragment)
chain: MLFGVKLANEVYPPWKGSYINYEGLKKFLKEDSVKDGSNDKKARWDDSDESKFVEELDKELEKVYGFQLKKYNNLMERLSHLEKQTDTEAAIKALDADAFQRVLEELLSESTELDNFKRLNFTGFAKIVKKHDKLYPKYPSVKSLLEVRLKELPSHSEEYSPLLYRISFLYNILRSNFNTASEPLASASKFSSIVSNDIDM

Kd [6]: 500 µM
B2: SPX2∆α7 (Vtc2(1–182)) (domain or fragment)
chain: MLFGVKLANEVYPPWKGSYINYEGLKKFLKEDSVKDGSNDKKARWDDSDESKFVEELDKELEKVYGFQLKKYNNLMERLSHLEKQTDTEAAIKALDADAFQRVLEELLSESTELDNFKRLNFTGFAKIVKKHDKLYPKYPSVKSLLEVRLKELPSHSEEYSPLLYRISFLYNILRSNFNTAS

Binder: B3
Kd (SPX2 Y19F): 633 µM | Kd (SPX2 N121A): 118 µM | Kd (SPX2 K127A): 166 µM | Kd (SPX2 S187A): 30 µM | Kd (SPX2 S189A): 71 µM
